Laboratory results taken from patent publication US5948622.

Target: T1, Tn5 transposase EK54/MA56/LP372 (Escherichia coli transposon Tn5) (UniProt Q46731)
T1 sequence: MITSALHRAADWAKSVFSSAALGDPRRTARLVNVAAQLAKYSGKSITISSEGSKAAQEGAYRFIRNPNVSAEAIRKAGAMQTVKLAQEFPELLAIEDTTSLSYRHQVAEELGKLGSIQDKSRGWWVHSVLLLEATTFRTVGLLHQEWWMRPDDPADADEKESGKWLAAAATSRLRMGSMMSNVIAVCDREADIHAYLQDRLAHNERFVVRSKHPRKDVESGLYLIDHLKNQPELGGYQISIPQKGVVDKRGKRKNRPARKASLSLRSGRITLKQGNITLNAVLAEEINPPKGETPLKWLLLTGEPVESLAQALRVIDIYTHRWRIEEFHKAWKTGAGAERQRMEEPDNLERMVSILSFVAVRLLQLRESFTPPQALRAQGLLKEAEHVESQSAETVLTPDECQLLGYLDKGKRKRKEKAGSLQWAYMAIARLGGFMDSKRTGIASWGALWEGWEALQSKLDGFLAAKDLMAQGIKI
Settings: pRZTL1 in vitro transposition; Mg acetate 10 mM, K glutamate 0.1 M, 20 C then 37 C; tet-resistance frequency, gel confirmed

For “AGT (double strand) [Tn5 outside end (OE) wild type]”, the activity was 0.1 % of cells.
